In this assay the target is SARS-CoV S-6P protein (SARS-CoV; strain of S-6P  …, UniProt P59594, stabilised). Description: cryo-EM structure.

This note sets out measurements from article doi:10.1101/2022.01.19.476892 (bioRxiv, 2022).

B1: antigen-binding fragment (Fab) of VacW-209 (Fab, V domains shown)
VH: QVQLVESGGGVVQPGRSLRLSCAASGFTFSSIAMHWVRQAPGKGLEWVAVMSFDGSIKYYGDSVKGRFTISRDNSKSTLYLQMNSLRAEDTAVYYCARGVQGYYDRSGYYNLDYNYGMDVWGQGTTVTVSS
VL: QSVLTQPPSVSGAPGQRVTISCTGSSSNIGAGYDVHWYQQLPGTAPKLLIYGNSNRPSGVPDRFSGSKSGTSASLAITGLQAEDEADYYCQSYDSSLSGWVFGGGTKLTVL
In the case of B1, the stoichiometry N – broadly, the number of molecules, sites or subunits per partner or assembly – was 3 Fabs per spike trimer.
